# Test results as given in patent US20100166741A1 (Genentech, published 2010).
# Positions count from the first letter of the chain named. Numbers in names are those of the source.
# T1: mouse FcγRII extracellular domain, His-tagged GST fusion (mouse, UniProt P08101 30-210)
# T1 construct: extracellular domain; also called Mouse II; not shown: His tag and GST
# T1 sequence (looked up): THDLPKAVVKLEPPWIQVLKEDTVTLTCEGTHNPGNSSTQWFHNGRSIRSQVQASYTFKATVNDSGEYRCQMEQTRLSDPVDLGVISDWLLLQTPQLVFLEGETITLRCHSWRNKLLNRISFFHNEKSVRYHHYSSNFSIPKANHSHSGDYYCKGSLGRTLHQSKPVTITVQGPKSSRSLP
# T2: mouse FcγRIII extracellular domain, His-tagged GST fusion (mouse, UniProt P08508 31-215)
# T2 construct: extracellular domain; also called Mouse III; not shown: His tag and GST
# T2 sequence (looked up): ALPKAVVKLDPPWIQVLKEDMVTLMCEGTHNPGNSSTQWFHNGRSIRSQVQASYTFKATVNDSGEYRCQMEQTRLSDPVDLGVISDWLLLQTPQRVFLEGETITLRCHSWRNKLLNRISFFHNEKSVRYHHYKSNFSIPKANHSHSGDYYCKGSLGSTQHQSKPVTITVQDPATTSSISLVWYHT
# T3: human FcγRIIa extracellular domain, His-tagged GST fusion (human, UniProt P12318 34-217)
# T3 construct: extracellular domain; also called hFcgRIIa; CD32A; not shown: C-terminal Gly/His6/GST tag
# T3 sequence (looked up): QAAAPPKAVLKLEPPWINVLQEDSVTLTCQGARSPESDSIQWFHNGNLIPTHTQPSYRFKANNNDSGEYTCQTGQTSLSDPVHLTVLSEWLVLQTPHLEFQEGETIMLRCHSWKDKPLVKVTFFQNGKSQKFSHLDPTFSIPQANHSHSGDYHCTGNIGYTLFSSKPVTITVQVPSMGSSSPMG
# T4: human FcγRIIb extracellular domain, His-tagged GST fusion (human, UniProt P31994 43-217)
# T4 construct: extracellular domain; also called hFcgRIIb; CD32B; not shown: C-terminal Gly/His6/GST tag
# T4 sequence (looked up): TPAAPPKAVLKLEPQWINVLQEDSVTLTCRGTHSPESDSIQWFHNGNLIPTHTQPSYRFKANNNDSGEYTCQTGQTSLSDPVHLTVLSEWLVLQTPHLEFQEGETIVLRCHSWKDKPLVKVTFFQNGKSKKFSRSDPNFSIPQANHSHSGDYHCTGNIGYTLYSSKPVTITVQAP
# T5: mouse FcγRI extracellular domain, His-tagged GST fusion (mouse, UniProt P26151 25-297)
# T5 construct: extracellular domain; also called Mouse I; mFcγRI; not shown: His tag and GST
# T5 sequence (looked up): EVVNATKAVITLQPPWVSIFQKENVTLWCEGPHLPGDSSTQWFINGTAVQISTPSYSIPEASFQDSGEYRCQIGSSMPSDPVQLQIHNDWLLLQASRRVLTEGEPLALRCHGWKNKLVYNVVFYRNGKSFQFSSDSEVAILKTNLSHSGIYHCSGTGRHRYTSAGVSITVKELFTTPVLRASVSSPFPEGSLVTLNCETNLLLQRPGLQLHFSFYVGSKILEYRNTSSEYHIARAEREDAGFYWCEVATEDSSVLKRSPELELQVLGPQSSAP
# B1: 9.1(5) (antibody, human IgG1, kappa)
# heavy: EVQLVESGGGLVQPGGSLRLSCAASGFTVTAYYMSWVRQAPGKGLEWVGFIRDKANGYTTEYNPSVKGRFTISRDTSKNTFYLQMNSLRAEDTAVYYCAQVRRALDYWGQGTLVTVSSASTKGPSVFPLAPSSKSTSGGTAALGCLVKDYFPEPVTVSWNSGALTSGVHTFPAVLQSSGLYSLSSVVTVPSSSLGTQTYICNVNHKPSNTKVDKKVEPKSCDKTHTCPPCPAPELLGGPSVFLFPPKPKDTLMISRTPEVTCVVVDVSHEDPEVKFNWYVDGVEVHNAKTKPREEQYNATYRVVSVLTVLHQDWLNGKEYKCKVSNAALPAPIAATISKAKGQPREPQVYTLPPSREEMTKNQVSLTCLVKGFYPSDIAVEWESNGQPENNYKTTPPVLDSDGSFFLYSKLTVDKSRWQQGNVFSCSVMHEALHNHYTQKSLSLSPG
# light: DIQMTQSPSSLSASVGDRVTITCKSSQSLLYSSNQNNYLAWYQQKPGKAPKLLIYWASTRESGVPSRFSGSGSGTDFTLTISSLQPEDFATYYCQQYYTYPYTFGQGTKVEIKRTVAAPSVFIFPPSDEQLKSGTASVVCLLNNFYPREAKVQWKVDNALQSGNSQESVTEQDSKDSTYSLSSTLTLSKADYEKHKVYACEVTHQGLSSPVTKSFNRGEC
# notes: Fc variant of 9.1RF, expressed in CHO; also called 9.1RF S298A/K326A/E333A/K334A
# B2: 9.1(9) (antibody, human IgG1, kappa)
# heavy: B1 heavy with S240D, H269D, A327K, I333E, A334E, A335K
# light: B1 light
# notes: Fc variant of 9.1RF, expressed in 293 cells; also called 9.1RF 239D/268D/298A/332E
# B3: 9.1(10) (antibody, human IgG1, kappa)
# heavy: B1 heavy with S240D, H269D, I333E, A334E, A335K
# light: B1 light
# notes: Fc variant of 9.1RF, expressed in 293 cells; also called 9.1RF 239D/268D/298A/326A/332E
# B4: 9.1(8) (antibody, human IgG1, kappa)
# heavy: B1 heavy with S240D, A327K, I333E, A334E, A335K
# light: B1 light
# notes: Fc variant of 9.1RF, expressed in CHO; also called 9.1RF 239D/298A/332E
# B5: 9.1(7) (antibody, human IgG1, kappa)
# heavy: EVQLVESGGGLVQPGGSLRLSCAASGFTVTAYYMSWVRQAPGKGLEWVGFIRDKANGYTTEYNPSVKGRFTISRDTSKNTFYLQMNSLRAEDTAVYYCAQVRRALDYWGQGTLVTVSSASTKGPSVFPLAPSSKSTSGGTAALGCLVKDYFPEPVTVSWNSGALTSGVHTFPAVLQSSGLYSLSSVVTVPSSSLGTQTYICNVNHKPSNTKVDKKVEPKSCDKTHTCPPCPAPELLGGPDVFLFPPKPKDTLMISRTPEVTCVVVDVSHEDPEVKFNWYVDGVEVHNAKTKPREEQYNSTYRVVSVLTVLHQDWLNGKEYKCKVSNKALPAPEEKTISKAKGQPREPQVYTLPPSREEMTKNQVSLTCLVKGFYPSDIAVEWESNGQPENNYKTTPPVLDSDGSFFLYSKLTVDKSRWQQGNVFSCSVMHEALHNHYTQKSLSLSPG
# light: B1 light
# notes: Fc variant of 9.1RF, expressed in CHO; also called 9.1RF 239D/332E
# B6: 9.1(6) (antibody, human IgG1, kappa)
# heavy: B1 heavy with A327K
# light: B1 light
# notes: Fc variant of 9.1RF, expressed in CHO; also called 9.1RF S298A/E333A/K334A
# B7: 9.1-RF N434A (antibody, human IgG1, kappa)
# heavy: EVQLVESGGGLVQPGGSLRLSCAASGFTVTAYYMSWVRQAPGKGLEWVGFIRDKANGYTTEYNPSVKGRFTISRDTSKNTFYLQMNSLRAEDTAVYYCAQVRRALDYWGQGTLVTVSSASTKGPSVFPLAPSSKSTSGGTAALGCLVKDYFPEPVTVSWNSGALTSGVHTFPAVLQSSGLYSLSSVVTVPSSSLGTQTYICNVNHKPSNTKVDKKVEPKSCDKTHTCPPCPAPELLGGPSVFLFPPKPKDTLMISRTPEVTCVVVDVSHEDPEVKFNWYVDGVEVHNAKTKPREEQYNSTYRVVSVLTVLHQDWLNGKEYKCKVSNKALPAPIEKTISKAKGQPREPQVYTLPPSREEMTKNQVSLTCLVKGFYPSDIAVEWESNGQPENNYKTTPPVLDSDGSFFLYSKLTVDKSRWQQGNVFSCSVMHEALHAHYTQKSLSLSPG
# light: B1 light
# notes: also called 9.1RF-IgG (N434X), X = A
# B8: 9.1-RF N434W (antibody, human IgG1, kappa)
# heavy: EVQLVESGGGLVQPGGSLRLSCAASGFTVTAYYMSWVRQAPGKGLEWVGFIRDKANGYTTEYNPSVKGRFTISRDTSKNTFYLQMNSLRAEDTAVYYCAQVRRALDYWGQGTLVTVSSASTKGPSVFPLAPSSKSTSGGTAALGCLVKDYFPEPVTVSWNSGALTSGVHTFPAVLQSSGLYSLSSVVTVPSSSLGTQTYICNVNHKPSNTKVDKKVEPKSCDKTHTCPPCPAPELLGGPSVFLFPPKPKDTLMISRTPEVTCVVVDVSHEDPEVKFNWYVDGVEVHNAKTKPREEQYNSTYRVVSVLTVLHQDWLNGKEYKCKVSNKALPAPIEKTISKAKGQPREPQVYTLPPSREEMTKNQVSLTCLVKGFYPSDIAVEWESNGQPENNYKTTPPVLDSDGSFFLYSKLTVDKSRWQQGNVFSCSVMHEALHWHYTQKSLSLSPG
# light: B1 light
# notes: also called Hu9.1RF IgG1 with an N434W mutation; Control (agonistic positive control)
# Target: T6, human FcγRIII (CD16) on NK cells (human, UniProt P08637 17-254)
# Experiment: cell-based or functional assay
row,Binder,"ADCC on BJAB cells with NK cells, relative fold increase compared to 9.1RF [fold]"
1,B1,3
2,B2,10
3,B3,10
4,B4,12
5,B5,7
6,B6,3

# Target: T1, mouse FcγRII extracellular domain, …
# Experiment: ELISA, captured FcγR-GST;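 further: antibody variants applied as dilution series to receptor wells, with retained antibody read out via an HRP-linked goat F(ab′)2 fragment recognizing human Fab′2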
# Procedure: (§1) Binding of the variant antibodies to Fcγ receptors was evaluated using an ELISA-based assay. […] Dilutions of the variant antibodies were added and allowed to bind followed by washing of the wells to remove unbound antibody. […] Bound antibody was detected with an HRP-coupled, Fab′2 fragment of a goat anti-huFab′2 antibody.
row,Binder,fold improvement in binding vs Herceptin (EC50herceptin/EC50sample) [fold]
1,B1,1.3
2,B4,7.6
3,B5,19
4,B6,0.4

# Target: T2, mouse FcγRIII extracellular domain, …
# Experiment: ELISA, captured FcγR-GST;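 further: antibody variants applied as dilution series to receptor wells, with retained antibody read out via an HRP-linked goat F(ab′)2 fragment recognizing human Fab′2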
# Procedure: as §1
row,Binder,fold improvement in binding vs Herceptin (EC50herceptin/EC50sample) [fold]
1,B1,1.2
2,B4,4
3,B5,9.9
4,B6,0.6

# Target: T3, human FcγRIIa extracellular domain, …
# Experiment: ELISA, captured FcγR-GST;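 further: antibody variants applied as dilution series to receptor wells, with retained antibody read out via an HRP-linked goat F(ab′)2 fragment recognizing human Fab′2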
# Procedure: as §1
row,Binder,fold improvement in binding vs Herceptin (EC50herceptin/EC50sample) [fold]
1,B1,0.2
2,B4,0.9
3,B5,5.3
4,B6,0.2

# Target: T4, human FcγRIIb extracellular domain, …
# Experiment: ELISA, captured FcγR-GST;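 further: antibody variants applied as dilution series to receptor wells, with retained antibody read out via an HRP-linked goat F(ab′)2 fragment recognizing human Fab′2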
# Procedure: as §1
row,Binder,fold improvement in binding vs Herceptin (EC50herceptin/EC50sample) [fold]
1,B1,0.7
2,B4,3.5
3,B5,17
4,B6,0.4

# Target: T7, human FcγRI extracellular domain, His-tagged GST fusion (human, UniProt P12314 16-292)
# T7 construct: extracellular domain; also called hFcgRI; FcγRIA; not shown: C-terminal Gly/His6/GST tag
# Experiment: ELISA, captured FcγR-GST
row,Binder,fold improvement in binding vs Herceptin (EC50herceptin/EC50sample) [fold]
1,B1,0.6
2,B4,0.7
3,B5,0.7
4,B6,0.7

# Target: T5, mouse FcγRI extracellular domain, …
# Experiment: ELISA, captured FcγR-GST
# Procedure: as §1
row,Binder,fold improvement in binding vs Herceptin (EC50herceptin/EC50sample) [fold]
1,B1,1.9
2,B4,24
3,B5,62
4,B6,2.5

# Target: T4, human FcγRIIb extracellular domain, …
# Experiment: Fcγ receptor ELISA; bar = fold increase in binding over Herceptin, log axis 0.1-1000
row,Binder,binding result
1,B2,binds
2,B3,binds

# Target: T7, human FcγRI extracellular domain, …
# Experiment: as above
row,Binder,binding result
1,B2,binds
2,B3,binds

# Target: T7, human FcγRI extracellular domain, …
# Experiment: ELISA, FcγR-His-GST captured by anti-GST
# Procedure: (§2) MaxiSorp 96-well microwell plates (Nunc, Roskilde, Denmark) were coated with 2 μg/ml anti-GST (clone 8E2.1.1, Genentech), at 100 μl/well in 50 mM carbonate buffer, pH 9.6, at 4° C. overnight. Plates were washed with PBS containing 0.05% polysorbate, pH 7.4 (wash buffer) and blocked with PBS containing 0.5% BSA, pH 7.4, at 150 μl/well. After an hour incubation at room temperature, plates were washed with wash buffer. […] The plates were incubated for one hour and washed with wash buffer. For low affinity Fcγ receptors IIa, IIb, III (F158) and high affinity III (V158), antibodies were incubated with goat F(ab′)₂ anti-κ (Cappel, ICN Pharmaceuticals, Inc., Aurora, Ohio) or anti-λ. (BioSource, Camarillo, Calif.) antibody at a 1:2 (w/w) ratio for 1 hour to form antibody complexes. […] After a two-hour incubation, plates were washed with wash buffer. Bound IgG was detected by adding peroxidase labeled goat F(ab′)₂ anti-human IgG F(ab′)₂ (Jackson ImmunoResearch, West Grove, Pa.) at 100 μl/well in assay buffer. After a one-hour incubation, plates were washed with wash buffer and the substrate 3,3′,5,5′-tetramethyl benzidine (TMB) (Kirkegaard & Perry Laboratories) was added at 100 μl/well. The reaction was stopped by adding 1 M phosphoric acid at 100 μl/well. Absorbance was read at 450 nm on a multiskan Ascent reader (Thermo Labsystems, Helsinki, Finland).
# (§3) The absorbance at the midpoint of the standard curve (mid-OD vs. ng/ml) was calculated. The corresponding concentrations of standard and samples at this mid-OD were determined from the titration curves using a four-parameter nonlinear regression curve-fitting program (KaleidaGraph, Synergy software, Reading, Pa.). The relative activity was calculated by dividing the mid-OD concentration of standard by that of sample.
row,Binder,binding relative to 9.1-RF
1,B7,0.97
2,B8,1

# Target: T3, human FcγRIIa extracellular domain, …
# Experiment: ELISA, FcγR-His-GST captured by anti-GST, complexed IgG
# Procedure: as §2, §3
row,Binder,binding relative to 9.1-RF
1,B7,0.66
2,B8,0.64

# Target: T4, human FcγRIIb extracellular domain, …
# Experiment: as above
# Procedure: as §2, §3
row,Binder,binding relative to 9.1-RF
1,B7,0.45
2,B8,0.4

# Target: T6, human FcγRIII (CD16) on NK cells
# Experiment: cell-based or functional assay
# Remark: another data set of the same source
row,Binder,"ADCC on BJAB cells with NK cells, relative EC50 values against 9.1RF [fold]"
1,B6,2.8
